Source: PMC5448004

Biological target: HepA (helicase protein A), archaeal HerA homolog of Thermus thermophilus, product of gene TTC0147 (Thermus thermophilus HB27)
Assay: negative-stain single-particle electron microscopy; purified HepA at 0.3 mg/mL in 20 mM Tris-HCl pH 7.5, pre-incubated with 1-10 mM ATP (30 min, 65 °C), 2% uranyl acetate; 2D classification and 3D reconstruction with C6 symmetry

stoichiometry N: 6
Substance: HepA (helicase protein A), archaeal HerA homolog of Thermus thermophilus, product of gene TTC0147 (enzyme)
